Data from article PMC11856044.

Target: Bombyx mori ribosomal protein RPL12 (Bombyx mori (endogenous in BmN))
Assay: Western blot of total cell proteins; total proteins of BmN cells (mock, control siRNA, BmRPL12 siRNA), anti-RPL12 polyclonal antibody; monomer and dimer bands

## Bombyx mori ribosomal protein RPL12 (natural protein)
  stoichiometry N: 2
